We go through 1 molecule from paper PMC12062419 (2025).

The experiment concerns the target T1, human migfilin (residues 1-85) Ser12His (human, UniProt Q8WUP2 1-85, Ser12His).
T1 sequence: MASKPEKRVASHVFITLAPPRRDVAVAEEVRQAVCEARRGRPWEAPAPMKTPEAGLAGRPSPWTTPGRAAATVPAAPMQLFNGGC
In words: NMR.

B1: GST-tagged human filamin A domain 21 (FLNa21) labelled with 4-trifluoromethyl-L-phenylalanine at position 2274 (domain or fragment)
chain: GGAHKVRAGGPGLERAEAGVPAEFSIWTREAGAGGLAIFVEGPSKAEISFEDRKDGSCGVAYVVQEPGDYEVSVKFNEEHIPDSPFVVPVASP
modifications: 4-trifluoromethyl-L-phenylalanine (tfmF) at position 2274
Take B1: the Kd (as a rule, the constant that tells how readily two partners part at equilibrium) is 4.9 µM.
